Measured values from patent publication US20130225434A1 (BOARD OF TRUSTEES OF THE UNIVERSITY OF ILLINOIS, published 2013).
Square brackets hold non-standard residues; d marks the D form. * marks the point of attachment. Biotin = O=C1N[C@H]2[C@H](CS[C@H]2CCCCC(=O)*)N1; pY = N[C@@H](Cc1ccc(OP(=O)(O)O)cc1)C(=O)O; pT = C[C@@H](OP(=O)(O)O)[C@H](N)C(=O)O; pS = N[C@@H](COP(=O)(O)O)C(=O)O

B3: BRCT-pS (peptide)
peptide: Biotin-SGSAYDI[pS]QVFPFAKKK-NH2
SMILES: CC[C@H](C)[C@H](NC(=O)[C@H](CC(=O)O)NC(=O)[C@H](Cc1ccc(O)cc1)NC(=O)[C@H](C)NC(=O)[C@H](CO)NC(=O)CNC(=O)[C@H](CO)NC(=O)CCCC[C@@H]1SC[C@@H]2NC(=O)N[C@@H]21)C(=O)N[C@@H](COP(=O)(O)O)C(=O)N[C@@H](CCC(N)=O)C(=O)N[C@H](C(=O)N[C@@H](Cc1ccccc1)C(=O)N1CCC[C@H]1C(=O)N[C@@H](Cc1ccccc1)C(=O)N[C@@H](C)C(=O)N[C@@H](CCCCN)C(=O)N[C@@H](CCCCN)C(=O)N[C@@H](CCCCN)C(N)=O)C(C)C
notes: also called Biotin-BRCT-pS

Columns and labels:
[1] = molecular target: Rad9-pT peptide with SGS linker (SGS-SLEVp…) (yeast); experiment: FTS assay, 1 µM protein, 50 µM pT peptide
[2] = molecular target: Rad9-pT peptide with SGS linker (SGS-SLEVp…) (yeast); experiment: FTS assay, 4 µM protein, 50 µM pT peptide
[3] = molecular target: Rad9-pT peptide with SGS linker (SGS-SLEVp…) (yeast); experiment: FTS assay, 4 µM protein, 250 µM pT peptide
[4] = molecular target: Rad9 pT peptide used for ITC (SLEVp…) (yeast); experiment: ITC
[5] = molecular target: Rad9 pT peptide used for ITC (SLEVp…) (yeast); experiment: ITC, pT peptide injected into 35 µM FHA1 domain, three repeats
[6] = molecular target: Rad9-pT peptide with SGS linker (SGS-SLEVp…) (yeast); experiment: FTS assay, 1 µM protein, 250 µM pT peptide
[7] = molecular target: T1, Rad9-pS (SMILES …); experiment: phage ELISA; biotinylated peptide on Neutravidin; anti-M13-HRP, A405 [a]
T1 peptide: Biotin-SGSSLEV[pS]EADATFYAKK-NH2
Source text: (§1) Binding of phage particles was detected using anti-M13 antibody conjugated to HRP. FIG. 4(b) is a graph of the results of ELISA experiments of GST fusions of the WT FHA1 domain and three of its variants, 3C-3S, 4C-4S, and D2, that bound specifically to the cognate pT peptide (Rad9-pT; shown as solid histograms) immobilized on plastic microtiter plate wells via Neutravidin. Binding was detected using anti-GST antibody conjugated to HRP. The peptide sequences for Rad9-pT, Rad9-T, Rad9-pS, Rad9-pY, Plk1-pT and BRCT-pS are SGSSLEVp[…] (SEQ ID NO: 1), […] (SEQ ID NO: 2), SGSSLEVp[…] (SEQ ID NO: 3), SGSSLEVp[…] (SEQ ID NO: 4), […]p[…] (SEQ ID NO: 5) and SGSAYDIp[…] (SEQ ID NO: 6), respectively. The peptide sequence for the WT FHA1 domain from S. cerevisiae Rad53 protein kinase includes […] (SEQ ID NO:7), which includes residues 1-170 of S. cerevisiae Rad53 (SEQ ID NO:8) (Liao et al. (2000) J. Mol. Biol 304, 941-51; Durocher et al. (1999) Mol Cell 4). […] The β-strands are labeled from 1 to 11 in the WT FHA1 domain structure and the N- and C-termini are noted.

[8] = molecular target: T2, Plk1-pT (SMILES …); experiment: as above
T2 peptide: Biotin-SGSAGPMQS[pT]PLNGAKK-NH2
Source text: as §1

[9] = molecular target: T3, Rad9-pY (SMILES …); experiment: as above
T3 peptide: Biotin-SGSSLEV[pY]EADATFYAKK-NH2
Source text: as §1

[10] = molecular target: B3; experiment: phage ELISA; biotinylated peptide on Neutravidin, A405
Experimental: FIG. 9A is a photograph of 96-well plates containing phage supernatants from 96 individual clones, which were isolated after three rounds of selection, heated (50° C.), cooled, and added to microtiter plate wells coated with the phosphopeptide ligand. Binding of phage particles in the wells was monitored with an anti-M13 antibody conjugated to HRP. FIG. 9B is a graph showing the ratio of the ELISA signals for individual phage clones generated with wells contained with the target protein compared to a negative control protein (background).
Phage particles produced from 96 clones isolated after round #3, were heated at 50° C. for 3 hr and cooled to RT. The phage supernatants were then incubated with both the target peptide (500 ng/well) immobilized on NeutrAvidin (1 μg/well) coated plate wells and an unrelated target (background). Binding phage clones were detected using anti-M13 antibody conjugated to HRP (GE Healthcare). The green, colored product of the enzymatic reaction in the microtiter plate wells was measured at 405 nm using the FLUOstar OPTIMA plate reader (BMG Labtech). […] In some cases, the signal over background ratio ranged from 3 to 20 for clones (FIG. 9B).

[11] = molecular target: T4, Rad9-pT peptide with SGS linker (SGS-SLEVpTEADATFYAKK) (yeast, SMILES …); experiment: phage ELISA, normalised to Flag
T4 construct: also called cognate pT peptide; Rad-pT
T4 peptide: Biotin-SGSSLEV[pT]EADATFYAKK-NH2
Source text: Through Kunkel mutagenesis (Yaffe (2002) Nat Rev Mol Cell Bol 3, 177-86), the amino acid residue at position 34 in the β1 strand of the D2 FHA 1 domain was replaced (from the naturally-occurring V) one at a time with each of the other naturally occurring amino acids and binding to the immobilized Rad9-pT peptide was monitored by phage ELISA. Phage binding was detected using anti-M13 antibody conjugated to Horse Radish Peroxidase (HRP). […] All the variants display an N-terminal Flag peptide and the amount of phage particles used for each variant in this experiment has been normalized for this epitope.
To amplify the phage particles displaying the recombinant FHA1 variants, TG1 bacterial cells (5 mL; Stratagene) harboring the phagemid DNA were infected at mid-log (OD₆₀₀ₙₘ=0.5-0.6) with M13K07 helper phage (New England Biolabs) at a multiplicity of infection (MOI) of 20 for 1 h at 37° C. at 150 rpm. Infected cells were centrifuged, and the pellet was resuspended in fresh Luria Bertani medium (LB: 10 g Tryptone, 5 g Yeast extract, and 10 g NaCl per liter) supplemented with 50 μg/mL carbenicillin and 50 μg/ml kanamycin, and phage were amplified overnight at 30° C. at 250 rpm. All of the phage ELISA steps were performed at room temperature. […]

[12] = molecular target: T5, WT FHA1 domain of S. cerevisiae Rad53, phage-displayed (protein III fusion on bacteriophage M13) (Saccharomyces cerevisiae; bacteriophage …, UniProt P22216 1-170); experiment: phage ELISA; biotinylated peptide on Neutravidin; anti-M13-HRP, A405 [a]
T5 construct: not shown: minor coat protein III (pIII, gene III product) of bacteriophage M13
T5 sequence: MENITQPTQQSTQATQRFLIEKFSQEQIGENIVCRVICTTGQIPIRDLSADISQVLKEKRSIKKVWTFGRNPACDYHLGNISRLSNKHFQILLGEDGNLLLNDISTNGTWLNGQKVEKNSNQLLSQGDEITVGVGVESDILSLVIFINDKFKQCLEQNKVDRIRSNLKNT
Source text: as §1

[13] = molecular target: T6, WT FHA1 domain, GST fusion (Saccharomyces cerevisiae, UniProt P22216 1-170); experiment: ELISA with GST fusion (cell lysate); biotinylated peptide on Neutravidin; anti-GST-HRP, A405 [b]
T6 construct: Expressed in the bacterial cytoplasm; cell lysate used in the ELISA; The order GST then FHA1 follows the pGEX-2T vector; also called GST fusion of the WT FHA1 domain; FHA1-GST fusion protein; not shown: Glutathione S-transferase (GST) of the pGEX-2T vector (GE Healthcare)
T6 sequence: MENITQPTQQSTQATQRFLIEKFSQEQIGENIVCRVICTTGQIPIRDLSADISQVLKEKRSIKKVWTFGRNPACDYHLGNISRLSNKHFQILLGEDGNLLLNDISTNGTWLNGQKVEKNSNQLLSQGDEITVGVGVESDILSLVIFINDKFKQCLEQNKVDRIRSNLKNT

Work on “WT FHA1 domain, purified with C-terminal six-histidine tag (from UniProt P22216 1-170)” yielded a Tm shift in the presence of pT peptide [1] of 1.7 ° C, a Tm shift in the presence of pT peptide [2] of 1.95 ° C and a Tm shift in the presence of pT peptide [3] of 3.55 ° C. The stoichiometry [4] was 1, the Kd [5] was 1000 nM and the Tm shift in the presence of pT peptide [6] was 3.8 ° C.

B1: D2 variant of the FHA1 domain, phage-displayed (protein III fusion) (designed binder, not shown: small tags and cut ends)
chain: MENITQPTQQSTQATQRFLIEKFSQEQIGENIVFRVISTTGQIPIRDLSADISQVLKEKRSIKKVWTFGRNPACDYHLGNISRLSNKHFQILLGEDGNLLLNDISTNGTWLNGQKVEKNSNQLLSQGDEITVGVGVESDILSLVIFINDKFKQSLEQNKVDRIRSNLKNT
notes: Selected from a mutagenic library built on the 3C-3S template; one added mutation S34F; also called position 34 F variant
B1: no binding [7]; no binding [8]; no binding [9]. B1: no binding [10].

B2: D2 FHA1 variant with W at position 34, phage-displayed (designed binder)
chain: MENITQPTQQSTQATQRFLIEKFSQEQIGENIVWRVISTTGQIPIRDLSADISQVLKEKRSIKKVWTFGRNPACDYHLGNISRLSNKHFQILLGEDGNLLLNDISTNGTWLNGQKVEKNSNQLLSQGDEITVGVGVESDILSLVIFINDKFKQSLEQNKVDRIRSNLKNT
notes: Made from D2 by Kunkel mutagenesis at position 34; also called S34W; not shown: N-terminal Flag peptide, cloning-site residues and M13 protein III (display carrier)
B2: no binding [11].

B3: no binding [12]; no binding [13].
